Target: Escherichia coli RNA polymerase holoenzyme with σ^70, in the initially stalled complex (E. coli) (UniProt P00579)
Sequence of UniProt P00579 (P00579 whole entry, looked up, one chain of several): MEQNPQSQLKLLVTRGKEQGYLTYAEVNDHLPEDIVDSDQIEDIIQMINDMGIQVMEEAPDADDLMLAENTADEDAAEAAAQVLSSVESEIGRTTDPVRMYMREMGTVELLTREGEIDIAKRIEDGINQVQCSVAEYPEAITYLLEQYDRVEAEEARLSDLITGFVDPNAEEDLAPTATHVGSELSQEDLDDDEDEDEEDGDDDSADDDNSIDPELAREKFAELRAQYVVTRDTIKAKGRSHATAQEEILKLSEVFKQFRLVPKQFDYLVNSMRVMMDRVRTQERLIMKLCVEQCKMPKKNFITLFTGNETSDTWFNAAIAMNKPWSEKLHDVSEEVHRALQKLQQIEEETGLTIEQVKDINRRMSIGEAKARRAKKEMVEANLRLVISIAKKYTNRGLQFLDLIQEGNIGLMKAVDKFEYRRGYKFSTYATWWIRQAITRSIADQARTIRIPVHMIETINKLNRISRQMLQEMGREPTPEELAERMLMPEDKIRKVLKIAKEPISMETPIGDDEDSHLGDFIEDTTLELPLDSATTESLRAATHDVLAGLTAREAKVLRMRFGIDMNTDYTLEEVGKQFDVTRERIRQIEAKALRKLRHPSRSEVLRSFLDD

- time constant of the decrease of stand-by TE as the interval between ISC washing and NTP injection is prolonged: 693 s
Substance: Rho (ρ) transcription termination factor, wild type (from UniProt P0AG30 1-419) (enzyme)
